According to the RNAGym collection of RNA variant scans (doi:10.1073/pnas.2313332121):

B1: TPR t1 (parent)
chain: GACCAAUCUGCCCUCAGAGCUCGAGAACAUCUUCGGAUGCAGAGGAGGCAGGCUUCGGUGGCGCGAUAGCGCCAACGUCCUCAACCUCCAAUGCAUCCCACCACAUGAUGAUGCCUGAAGAGCCUUGGUUUUUUG

Variants of: B1
Test: polymerase ribozyme fitness, log enrichment relative to wild type (log ratio); higher = more active; in vitro selection for triplet polymerase activity
How it was run: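 Libraries of mutants in each subunit of a heterodimeric triplet polymerase ribozyme were generated by PCR and transcribed. In triplicate, each went through one in vitro selection round: annealing with biotinylated primer, partner subunit and triplets; frozen incubation at −7 °C; gel excision of extended constructs; streptavidin-bead capture; RT-PCR. Fitness, taken from Illumina sequencing of input and output libraries, is the logarithm of a genotype's enrichment over wild-type enrichment, averaged across replicates with inverse-variance weights. The logarithm is base 2, and genotypes needed ≥10 input reads and ≥1 read per output to be kept.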

| Variant | polymerase ribozyme fitness (log ratio) |
| --- | --- |
| C8U G44U G52A G63C A84U C85A | -6.83 |
| U9C C13A C102U A111C | -0.646 |
| C8U G61U A66U C123A U133G | 0.747 |
| C8U C13U C28G C82G C114G | -4.82 |
| U9A G48C C62A G77A C88U U112A | -3.81 |
| U9A G35U C72U G77A C124G U126A | -5.65 |
| C8U C123A | 0.745 |
| U9A G52U C88U C124A | 0.944 |
| C8U U59G U96A G110U | -2.31 |
| U9C G19A U32A C88U C123A | -5.37 |
| C8U C40U G60A C82A G120U | 1.65 |
| C8U G36U G39A G48U C72A U106A | -1.69 |
| U9C U14C U33G G51A G69U A118G | -5.88 |
| C8U G93A G110U G127C | -2.37 |
| U9A G63U U96G G128A | -2.96 |
| C8U C13U A68G U129G | -3.57 |
| C8U C56U U96C | 0.0221 |
| U9A G71U C94A C123G | 0.355 |
| C8U C49A | 0.373 |
| U9G C104U C124U | 1.88 |
| C8U G61A C70U U87G C89G | -5.05 |
| U9G C34U A103U | -4.66 |
| U9A U78C C86A A121C | 2.18 |
| C8U U92A G93A | -4.46 |

| Variant | polymerase ribozyme fitness (log ratio) |
| --- | --- |
| U9A C56A G77U G117U | 0.546 |
| U9G C34G A121U | -4.18 |
| C8U C20A C53U U54A C89G | -4.08 |
| C8U C20U U38G C62G G113U | -3.27 |
| U9G U21A | -0.191 |
| U9G C70U U81C G110U | -3.84 |
| U9G G52U C80A G110U | -5.82 |
| C8U G63C C102U | -2.5 |
| U9A A26G G47A C49U C82G G107U | -6.22 |
| U9A A84U U92A U116G U132C | -4.07 |
| U9G C70G | -2.02 |
| U9G C70A | -1.08 |
| C8U C13A G71U C79U | -1.19 |
| U9C C73A C85G | -0.637 |
| C8U U59G A75U U81G C124U | -2.31 |
| C8U G52U A105G | -3.89 |
| U9G G35U | -4.99 |
| U9C A68G C86A C99A | -6.98 |
| U9G G110C | -4.11 |
| U9C A68G | -2.42 |
| U9G C56U C114A C115G | -5.74 |
| C8U G44A G60A A121C G122U | -1.04 |
| U9G G39U | -0.00423 |
| U9G G42U G45C U92G U129A | -6.64 |

| Variant | polymerase ribozyme fitness (log ratio) |
| --- | --- |
| U9G A24G | -0.443 |
| U9A G63U U78A G93C C124G G128C | -3.75 |
| U9C G113A | -0.364 |
| U9A C72G | -0.0842 |
| U9G G39A G57A C114G G117A | -6.32 |
| U9A G10C C73U C102G C114G C115G | -6.5 |
| U9G A108G | -1.95 |
| U9G C12A U54A G93A | 0.0472 |
| U9A C31G C73G C85A U109C | -5.57 |
| U9A A37C G63A | -0.704 |
| U9C C40G U55A C76A C88G | -4.6 |
| U9C A41C U87C C114U | -0.644 |
| U9A G128C | -2.11 |
| U9C U32C U59G A121C G122U | 0.733 |
| U9G G51C C56G C62U C80G A119U | -0.0854 |
| C8U C56U G61A A95U G120A | -6.04 |
| U9A G45A | -0.107 |
| C8U C70G U78C G113A A121G | -3.57 |
| C8U C73G | -0.251 |
| U9A A43C C82G A108G C123G U131A | -5.6 |
| U9A C70U U78A | -0.654 |
| U9G C76U | 0.331 |
| U9G A74U | 0.26 |
| U9C U78C A83U A90G A121G | 2.5 |

| Variant | polymerase ribozyme fitness (log ratio) |
| --- | --- |
| U9A G39C C94U | -0.376 |
| U9C C49A C86U C94A G113A | -1.52 |
| C8U G45A | 0.126 |
| U9G C56A C79G | -1.55 |
| U9G A50C | -0.315 |
| U9A C64U A66G | -3.02 |
| C8U U78A G93U C101G C104A C124U | -3.7 |
| U9G C72A A95G | 0.389 |
| U9C G10A | 0.0311 |
| C8U U32A G60C C97A C99A G122U | -5.09 |
| U9C G36A C85U C123A | 0.00121 |
| U9C C40G G69A C101U | -2.3 |
| U9A C11U G52A | -0.401 |
| U9C C79U | 0.385 |
| C8U G61A A84C | 0.393 |
| C8U G47C G57A U92C | -4.38 |
| C8U U14G G45A G69A | -2.72 |
| C8U U78C U92G C115A A119U | -0.985 |
| U9G C62A U92A C104U | -4.41 |
| C8U U55C C64G U112A | -6.22 |
| U9A A50C | 0.19 |
| U9A G17U U78C C82G C86G C124U U125C | -0.551 |
| U9C A41C A91C | -1.02 |
| C8U U59G | 0.21 |

| Variant | polymerase ribozyme fitness (log ratio) |
| --- | --- |
| U9G C99U | -2.87 |
| C8U U14A A46U C56U | -1.92 |
| U9G A26U G39U U78C C82G | -4.7 |
| U9A G19C A41U G63C | -3.34 |
| U9C C49A C85U G120C | 1.08 |
| U9G G19U G45U C114A | 1.58 |
| C8U C13U A103C C115A A119G | -2.38 |
| U9A G47U G63C U130C | 0.0031 |
| U9G C88U G93C | -0.642 |
| U9G C56A A66C C72U | -1.3 |
| U9C U78G U81A | -0.22 |
| U9C C20A A37G G47A U87G G120A G122U | -3.6 |
| U9G U14A G52C | -0.345 |
| U9G G61U G77A C97G U130C | -5.47 |
| U9C C56G C62G | -3.04 |
| U9A C73U | 0.98 |
| U9G G63C G71U C79A | -5.4 |
| C8U G117U | -1.38 |
| U9G C72U C102A G122A U125A | -1.75 |
| U9C C72U C98U G120A | 0.967 |
| U9C G57U C114U G128C U130C | -1.68 |
| U9A U116C | 0.0652 |
| U9A G42A C86U C104G G110U | -7.22 |
| U9A C31U A111C G135U | -4.56 |

| Variant | polymerase ribozyme fitness (log ratio) |
| --- | --- |
| U9C G19U U81C U130C | -3.09 |
| U9A A26G A50U | -1.68 |
| C8U C102A | -1.17 |
| C8U C53G | -0.0198 |
| U9C C72A A83U A90G U131C | 0.697 |
| U9A C15A A37G C56U G65A C79G C86G C115A | -7.1 |
| U9G C86A C114A | -0.649 |
| U9C G39U G48A C53G A91G | -2.06 |
| U9G C62G C82A | -0.591 |
| U9C G10A G93A | -0.147 |
| U9C C53G A105U | -1.72 |
| U9A G117U | -1.08 |
| C8U G10C C13A C34A C40U C98G A103C | -3.92 |
| U9G A26G C70G A84U U112A | -4.4 |
| U9C G47C U132C | -1.22 |
| U9G A26U | -2.33 |
| U9A C15A G39U C49A C56U A121U | 0.6 |
| U9A G36C C101U | -0.0357 |
| U9C A41G G45U C82U C85G | -4.04 |
| U9G C56U C62U C94U U96A | -1.52 |
| C8U U21A G69C U106C U112A | -0.365 |
| U9A C31U G44U G52U A111U | -5.37 |
| C8U C64U C101G G110A | -3.18 |
| U9A C49A C56U C73A | -0.459 |

| Variant | polymerase ribozyme fitness (log ratio) |
| --- | --- |
| U9A U33G G36U U38G C53G C115G | -7.69 |
| U9C G17A A18G G113U | -4.74 |
| U9G A37U C40U G45A C72U C104U | -0.789 |
| C8U G23C C34U G61A G93A U109C | -6.59 |
| C8U C76G A90C C101U | -1.52 |
| U9A C11A C56A A95G U106A C123U | 1.46 |
| C8U G51U | -2.45 |
| U9A C40U A46U C56U C115G U131G | -1.77 |
| C8U C15G G63U U87A | -3.32 |
| U9A C20U A43U A50C U87A | -1.81 |
| C8U U92C | -0.788 |
| C8U C49G C123U | 1.73 |
| U9G G42U U55A | -1.32 |
| C8U C56U C70A | -4.3 |
| U9C A16U G52U | -0.423 |
| U9C G60A | 0.405 |
| U9A A16U C89U | -0.38 |
| U9G G69U C73U U106C | 0.373 |
| U9G C11A C70A U87A | -2.04 |
| C8U C88A A90U | -0.855 |
| U9G A29G | -1.35 |
| U9A G71U C104U | 0.24 |
| U9A G60A C70A C98U C101G C123G | -6.71 |
